Data on five molecules can be found in US6808893 (Johns Hopkins, dated 2004).

To fix the notation:
B2: GTRAP4-48 (glutamate transporter 4 associated protein), full-length (other)
chain: MSIRLPHSIDRSASKKQSHLSSPIASWLSSLSSLGDSTPERTSPSHHRQPSDTSETTAGLVQRCVIIQKDQHGFGFTVSGDRIVLVQSVRPGGAAMKAGVKEGDRIIKVNGTMVTNSSHLEVVKLIKSGAYAALTLLGSSPPSVGVSGLQQNPSVAGVLRVNPIIPPPPPPPPLPPPQHITGPKPLQDPEVQKHATQILWNMLRQEEEELQDILPPCGETSQRTCEGRLSVDSQEADSGLDSGTERFPSISESLMNRNSVLSDPGLDSPQTSPVILARVAQHHRRQGSDAALLPLNHQGIDQSPKPLIIGPEEDYDPGYFNNESDIIFQDLEKLKSHPAYLVVFLRYILSQADPGPLLFYLCSEVYQQTNPKDSRSLGKDIWNIFLEKNAPLRVKIPEMLQAEIDLRLRNNEDPRNVLCEAQEAVMLEIQEQINDYRSKRTLGLGSLYGENDLLGLDGDPLRERQMAEKQLAALGDILSKYEEDRSAPMDFAVNTFMSHAGIRLRESRSSCTAEKTQSAPDKDKWLPFFPKTKKQSSNSKKEKDALEDKKRNPILRYIGKPKSSSQSIKPGNVRNIIQHFENSHQYDVPEPGTQRLSTGSFPEDLLESDSSRSEIRLGRSGSLKGREEMKRSRKAENVPRPRSDVDMDAAAEAARLHQSASSSASSLSTRSLENPTPPFTPKMGRRSIESPNLGFCTDVILPHLLEDDLGQLSDLEPEPEVQNWQHTVGKDVVANLTQREIDRQEVINELFVTEASHLRTLRVLDLIFYQRMRKENLMPREELARLFPNLPELIEIHNSWCEAMKKLREEGPIIRDISDPMLARFDGPAREELQQVAAQFCSYQSVALELIRTKQRKESRFQLFMQEAESHPQCRRLQLRDLIVSEMQRLTKYPLLLENIIKHTEGGTSEHEKLCRARDQCREILKFVNEAVKQTENRHRLEGYQKRLDATALERASNPLAAEFKSLDLTTRKMIHEGPLTWRISKDKTLDLQVLLLEDLVVLLQRQEERLLLKCHSKTAVGSSDSKQTFSPVLKLNAVLIRSVATDKRAFFIICTSELGPPQIYELVALTSSDKNIWMELLEEAVQNATKHPGAAPIPIHPSPPGSQEPAYQGSTSSRVEINDSEVYHTEKEPKKLPEGPGPEQRVQDKQLIAQGEPVQEEDEEELRTLPRAPPSLDGENRGIRTRDPVLLALTGPLLMEGLADAALEDVENLRHLILWSLLPGHTVKTQAAGEPEDDLTPTPSVVSITSHPWDPGSPGQAPTISDSTRLARPEGSQPEGEDVAVSSLAHLPPRTRSSGVWDSPELDRNPAAEAASTEPAASYKVVRKVSLLPGGGVGAAKVAGSNAIPDSGQSESELSEVEGGAQATGNCFYVSMPAGPLDSSTEPTGTPPSPSQCHSLPAWPTEPQPYRGVRGGQCSSLVRRDVDVIFHTIEQLTIKLHRLKDMELAHRELLKSLGGESSGGTTPVGSFHTEAARWTDYSLSPPAKEALASDSQNGQEQGSCPEEGSDIALEDSATDTAVSPGP
notes: also called GTRAP48

The target of assay [1] is T1, GTRAP4-41 (glutamate transporter 4 associated protein), full-length (rat, UniProt Q9QWN8 2-2388).
T1 construct: Used for native GTRAP4-41 of rat brain and for full-length GTRAP4-41 expressed where no tag is stated (transfected HEK cells, HSV amplicon); also called GTRAP41
T1 sequence (Q9QWN8 other isoform, or with tags, fused parts or gaps limits assumed): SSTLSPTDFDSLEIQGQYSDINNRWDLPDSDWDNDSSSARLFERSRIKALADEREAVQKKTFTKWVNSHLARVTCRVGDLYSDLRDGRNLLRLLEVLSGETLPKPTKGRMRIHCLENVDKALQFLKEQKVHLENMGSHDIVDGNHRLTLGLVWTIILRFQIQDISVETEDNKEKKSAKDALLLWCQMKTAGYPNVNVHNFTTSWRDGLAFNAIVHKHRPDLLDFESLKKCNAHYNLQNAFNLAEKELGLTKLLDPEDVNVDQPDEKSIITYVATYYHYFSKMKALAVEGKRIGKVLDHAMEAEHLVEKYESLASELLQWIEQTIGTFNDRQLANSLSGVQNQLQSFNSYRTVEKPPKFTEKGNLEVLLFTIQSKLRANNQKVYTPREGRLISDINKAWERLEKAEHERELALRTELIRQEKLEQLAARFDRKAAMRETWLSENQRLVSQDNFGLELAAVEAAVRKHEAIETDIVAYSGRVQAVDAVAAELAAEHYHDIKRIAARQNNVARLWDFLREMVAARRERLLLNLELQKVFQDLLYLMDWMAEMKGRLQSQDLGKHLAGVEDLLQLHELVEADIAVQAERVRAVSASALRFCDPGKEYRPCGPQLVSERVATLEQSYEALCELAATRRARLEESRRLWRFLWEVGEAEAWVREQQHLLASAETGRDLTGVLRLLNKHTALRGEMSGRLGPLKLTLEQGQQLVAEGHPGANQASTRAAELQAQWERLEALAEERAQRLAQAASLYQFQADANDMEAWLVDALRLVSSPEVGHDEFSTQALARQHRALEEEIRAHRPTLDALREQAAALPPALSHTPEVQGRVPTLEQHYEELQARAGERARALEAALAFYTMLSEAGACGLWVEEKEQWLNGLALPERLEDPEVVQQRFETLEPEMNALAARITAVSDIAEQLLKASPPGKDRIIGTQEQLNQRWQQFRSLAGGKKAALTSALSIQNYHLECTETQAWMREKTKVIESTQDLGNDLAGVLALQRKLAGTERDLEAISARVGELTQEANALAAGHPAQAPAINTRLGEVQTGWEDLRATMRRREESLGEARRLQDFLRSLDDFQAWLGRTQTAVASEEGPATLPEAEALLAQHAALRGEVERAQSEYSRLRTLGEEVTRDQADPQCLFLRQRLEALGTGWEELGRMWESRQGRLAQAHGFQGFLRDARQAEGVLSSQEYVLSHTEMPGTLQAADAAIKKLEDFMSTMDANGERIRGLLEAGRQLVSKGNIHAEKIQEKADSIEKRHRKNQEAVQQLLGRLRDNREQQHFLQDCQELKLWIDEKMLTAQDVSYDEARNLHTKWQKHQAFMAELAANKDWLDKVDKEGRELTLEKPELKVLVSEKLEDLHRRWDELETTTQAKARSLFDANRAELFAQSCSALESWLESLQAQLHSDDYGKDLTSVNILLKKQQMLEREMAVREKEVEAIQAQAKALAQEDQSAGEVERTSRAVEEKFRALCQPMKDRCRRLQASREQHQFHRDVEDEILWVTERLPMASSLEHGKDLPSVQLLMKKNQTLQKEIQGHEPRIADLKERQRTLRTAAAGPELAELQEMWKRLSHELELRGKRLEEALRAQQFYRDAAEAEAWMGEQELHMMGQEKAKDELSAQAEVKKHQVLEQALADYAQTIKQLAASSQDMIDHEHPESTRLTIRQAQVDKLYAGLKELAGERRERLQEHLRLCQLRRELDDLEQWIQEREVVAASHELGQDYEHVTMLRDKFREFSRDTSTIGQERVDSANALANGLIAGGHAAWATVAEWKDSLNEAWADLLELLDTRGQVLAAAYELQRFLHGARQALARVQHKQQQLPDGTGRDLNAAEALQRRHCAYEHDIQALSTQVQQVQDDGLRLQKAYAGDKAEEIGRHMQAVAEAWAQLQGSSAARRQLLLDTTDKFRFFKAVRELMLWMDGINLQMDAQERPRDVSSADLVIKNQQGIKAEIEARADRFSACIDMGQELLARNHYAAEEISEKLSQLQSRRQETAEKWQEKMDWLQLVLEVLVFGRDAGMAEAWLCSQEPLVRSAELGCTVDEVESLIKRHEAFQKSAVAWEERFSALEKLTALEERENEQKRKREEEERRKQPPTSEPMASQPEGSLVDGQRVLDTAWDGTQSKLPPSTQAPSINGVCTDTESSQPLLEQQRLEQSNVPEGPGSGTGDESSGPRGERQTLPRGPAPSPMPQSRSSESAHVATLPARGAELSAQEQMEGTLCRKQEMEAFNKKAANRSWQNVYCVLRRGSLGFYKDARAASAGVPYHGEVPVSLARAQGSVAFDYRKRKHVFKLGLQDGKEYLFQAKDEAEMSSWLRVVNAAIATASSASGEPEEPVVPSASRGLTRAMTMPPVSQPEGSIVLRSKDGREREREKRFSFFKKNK
The experiment in a line: co-immunoprecipitation from solubilized rat brain. Here is the method:
(§1) Immunoprecipitation from cerebellum lysate. Sprague-Dawley (SD) rat cerebellum was dissected, washed with 50 mM Tris-HCl (pH 7.5), 2 mM EDTA and 0.5 mM DTT, and homogenized on ice in buffer containing 20 mM Tris-HCl (pH 7.5), 10% sucrose, 1 mM EDTA, 0.1 mM PMSF, 0.3 mM aprotinin, 1 mM benamidine, 10 mg/ml leupeptine and 10 mg/ml pepstatine. Protein concentration was measured and adjusted to 2–3 mg/ml, and the homogenate was mixed in a 1:1 ratio with the solubilization buffer (homogenization buffer plus 2% Triton X-100). After 2 h, the lysate was spun at 10,000 g for 10 min. For each immunoprecipitation, […] of the Triton-lysate was incubated overnight at 4° C. with 5 μg of the anti-amino-terminal EAAT4 antibody. Immune complexes were precipitated with protein A Sepharose (Pharmacia), washed three times with 10 mM Tris-HCl (pH 7.5) and 5 mM EDTA, eluted with 3×SDS loading buffer, and processed for western blot analysis. The filters were probed with affinity purified rabbit antibodies against GTRAP4-41 and GTRAP4-48.
(§2) The GTRAP4-41 and GTRAP4-48 interaction with EAAT4 was then studied in vivo using solubilized brain preparations. GTRAP4-41 and GTRAP4-48 are co-immunoprecipitated with EAAT4 from brain by antibodies directed at the amino-terminus of EAAT4 but not by antibodies directed at the carboxy-terminus. However, since the site of interaction is within the carboxy-terminus of EAAT4, it is likely that the carboxy-terminal antibodies disrupt the protein-protein interaction. […] GTRAP4-48 is also not co-immunoprecipitated from brain with antibodies directed at GTRAP4-41.

In assay [2] the target is B2. Put plainly: co-immunoprecipitation from solubilized rat brain. Here is the method:
as §1, §2

For assay [3], the target named is T2, EAAT4, full-length glutamate transporter (rat, UniProt O35921 1-561).
T2 sequence (looked up): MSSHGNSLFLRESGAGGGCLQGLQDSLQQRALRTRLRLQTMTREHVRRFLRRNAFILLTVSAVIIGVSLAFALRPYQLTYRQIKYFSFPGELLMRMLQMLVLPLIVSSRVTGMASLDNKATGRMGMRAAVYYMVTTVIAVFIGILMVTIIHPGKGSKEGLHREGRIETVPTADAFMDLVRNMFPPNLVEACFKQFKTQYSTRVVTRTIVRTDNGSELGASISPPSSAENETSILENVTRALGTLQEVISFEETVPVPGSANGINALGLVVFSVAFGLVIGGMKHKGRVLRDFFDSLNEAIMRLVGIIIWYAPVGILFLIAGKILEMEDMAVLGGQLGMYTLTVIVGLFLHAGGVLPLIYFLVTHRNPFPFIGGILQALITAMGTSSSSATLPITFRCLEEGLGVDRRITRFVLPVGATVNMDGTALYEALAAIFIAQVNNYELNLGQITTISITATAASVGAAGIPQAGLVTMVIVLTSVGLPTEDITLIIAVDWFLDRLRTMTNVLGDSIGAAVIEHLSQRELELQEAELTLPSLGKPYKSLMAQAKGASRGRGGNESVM
Put plainly: cell-based or functional assay.

The target of assay [4] is T3, myc-tagged full-length GTRAP4-41 (rat, UniProt Q9QWN8 2-2388).
T3 construct: tested from solubilized cell extract; also called myc-tagged GTRAP4-41; not shown: myc tag of the myc-tagged pRK5 vector
T3 sequence (Q9QWN8 other isoform, or with tags, fused parts or gaps): as the sequence (Q9QWN8 other isoform, or with tags, fused parts or gaps limits assumed) above
The experiment in a line: in vitro binding assay, bead-linked GST-EAAT4 with solubilized HEK 293T extract. Here is the method:
(§3) GTRAP4-41 and 4-48 Immunoprecipitation with Fusion Proteins. Full-length EAAT4 was subcloned into the EcoR I site of the GST-fusion vector pGEX-6P-1 (Pharmacia). Synthesis of recombinant proteins in BL21 cells (Novagen) was induced by 0.1 mM isopropyl b-D-thiogalactoside for 2 hrs at 30° C. and prepared as a crude bacterial lysate by mild sonication in ice-cold 1 C PBS and solubilization in 1% Triton X-100. Cell debris was removed by centrifugation at 7,000 g and the cleared bacterial lysate applied to glutathione-Sepharose-4B (Pharmacia). […] The cellular lysate was incubated with GST or GST-EAAT4 immobilized on glutathione-Sepharose-4B, and washed to remove non-specifically bound proteins. Specifically bound proteins were eluted with 3×SDS loading buffer and analyzed by immunoblotting using an anti-c-myc antibody. Bands were visualized by HRP-conjugated secondary antibodies and ECL chemiluminescence (Amersham).
(§4) The biochemical interaction between GTRAP4-41 or GTRAP4-48 and EAAT4 was confirmed using an in vitro binding assay. […] The solubilized cell extracts were then mixed with bead-linked GST-EAAT4 or GST alone and the bound proteins were eluted. GTRAP4-41 and GTRAP4-48 were specifically retained by the GST-EAAT4 fusion protein, but not by GST alone.

In assay [5] the target is T4, myc-tagged full-length GTRAP4-48 (rat, UniProt Q9ES67 1-1527).
T4 construct: tested from solubilized cell extract; also called myc-tagged GTRAP4-48; not shown: myc tag of the myc-tagged pRK5 vector
Described as above. As to the method: as §3, §4

B1: GLAST glutamate transporter (other, rat, UniProt P24942 1-543, looked up)
chain: MTKSNGEEPRMGSRMERFQQGVRKRTLLAKKKVQNITKEDVKSYLFRNAFVLLTVSAVIVGTILGFALRPYKMSYREVKYFSFPGELLMRMLQMLVLPLIISSLVTGMAALDSKASGKMGMRAVVYYMTTTIIAVVIGIIIVIIIHPGKGTKENMYREGKIVQVTAADAFLDLIRNMFPPNLVEACFKQFKTSYEKRSFKVPIQANETLLGAVINNVSEAMETLTRIREEMVPVPGSVNGVNALGLVVFSMCFGFVIGNMKEQGQALREFFDSLNEAIMRLVAVIMWYAPLGILFLIAGKILEMEDMGVIGGQLAMYTVTVIVGLLIHAVIVLPLLYFLVTRKNPWVFIGGLLQALITALGTSSSSATLPITFKCLEENNGVDKRITRFVLPVGATINMDGTALYEALAAIFIAQVNNFDLNFGQIITISITATAASIGAAGIPQAGLVTMVIVLTSVGLPTDDITLIIAVDWFLDRLRTTTNVLGDSLGAGIVEHLSRHELKNRDVEMGNSVIEENEMKKPYQLIAQDNEPEKPVADSETKM
notes: whole, on cells; Native protein in solubilized rat brain
Regarding B1, the binding result in assay [1] and in assay [2] was “no binding” throughout.
Consider B2, for which the binding result in assay [1] is on record as “no binding”. Moreover, in assay [3], the “Na+-dependent glutamate transport in HEK-rEAAT4 cells” value is 4 fold.

B3: GST-EAAT4 fusion protein (full-length EAAT4 in pGEX-6P-1) (other, UniProt O35921 1-561, looked up)
chain: MSSHGNSLFLRESGAGGGCLQGLQDSLQQRALRTRLRLQTMTREHVRRFLRRNAFILLTVSAVIIGVSLAFALRPYQLTYRQIKYFSFPGELLMRMLQMLVLPLIVSSRVTGMASLDNKATGRMGMRAAVYYMVTTVIAVFIGILMVTIIHPGKGSKEGLHREGRIETVPTADAFMDLVRNMFPPNLVEACFKQFKTQYSTRVVTRTIVRTDNGSELGASISPPSSAENETSILENVTRALGTLQEVISFEETVPVPGSANGINALGLVVFSVAFGLVIGGMKHKGRVLRDFFDSLNEAIMRLVGIIIWYAPVGILFLIAGKILEMEDMAVLGGQLGMYTLTVIVGLFLHAGGVLPLIYFLVTHRNPFPFIGGILQALITAMGTSSSSATLPITFRCLEEGLGVDRRITRFVLPVGATVNMDGTALYEALAAIFIAQVNNYELNLGQITTISITATAASVGAAGIPQAGLVTMVIVLTSVGLPTEDITLIIAVDWFLDRLRTMTNVLGDSIGAAVIEHLSQRELELQEAELTLPSLGKPYKSLMAQAKGASRGRGGNESVM
notes: mature; Made in BL21 cells, immobilized on glutathione-Sepharose-4B; not shown: glutathione S-transferase of vector pGEX-6P-1 (Pharmacia)
Regarding B3, the binding result in assay [4] and in assay [5] was “binds” throughout.

B4: GLT-1 glutamate transporter (other, rat, UniProt P31596 1-573, looked up)
chain: MASTEGANNMPKQVEVRMHDSHLSSEEPKHRNLGMRMCDKLGKNLLLSLTVFGVILGAVCGGLLRLAAPIHPDVVMLIAFPGDILMRMLKMLILPLIISSLITGLSGLDAKASGRLGTRAMVYYMSTTIIAAVLGVILVLAIHPGNPKLKKQLGPGKKNDEVSSLDAFLDLIRNLFPENLVQACFQQIQTVTKKVLVAPPSEEANTTKAVISLLNETMNEAPEETKIVIKKGLEFKDGMNVLGLIGFFIAFGIAMGKMGEQAKLMVEFFNILNEIVMKLVIMIMWYSPLGIACLICGKIIAIKDLEVVARQLGMYMITVIVGLIIHGGIFLPLIYFVVTRKNPFSFFAGIFQAWITALGTASSAGTLPVTFRCLEDNLGIDKRVTRFVLPVGATINMDGTALYEAVAAIFIAQMNGVILDGGQIVTVSLTATLASIGAASIPSAGLVTMLLILTAVGLPTEDISLLVAVDWLLDRMRTSVNVVGDSFGAGIVYHLSKSELDTIDSQHRMHEDIEMTKTQSVYDDTKNHRESNSNQCVYAAHNSVVIDECKVTLAANGKSADCSVEEEPWKREK
notes: as for B1
As to B4, the binding result in assay [1] and in assay [2] was “no binding” throughout.

B5: EAAC1, full-length glutamate transporter (other, rat, UniProt P51907 1-523, looked up)
chain: MGKPTSSGCDWRRFLRNHWLLLSTVAAVVLGIVVGVLVRGHSELSNLDKFYFAFPGEILMRMLKLVILPLIISSMITGVAALDSNVSGKIGLRAVVYYFSTTVIAVILGIVLVVSIKPGVTQKVNEINRTGKTPEVSTVDAMLDLIRNMFPENLVQACFQQYKTKREEVKPASDPGGNQTEVSVTTAMTTMSENKTKEYKIVGLYSDGINVLGLIIFCLVFGLVIGKMGEKGQILVDFFNALSDATMKIVQIIMCYMPIGILFLIAGKIIEVEDWEIFRKLGLYMATVLSGLAIHSLVVLPLIYFIVVRKNPFRFALGMAQALLTALMISSSSATLPVTFRCAEEKNHVDKRITRFVLPVGATINMDGTALYEAVAAVFIAQLNGMDLSIGQIITISITATAASIGAAGVPQAGLVTMVIVLSAVGLPAEDVTLIIAVDWLLDRFRTMVNVLGDAFGTGIVEKLSKKELEQVDVSSEVNIVNPFALEPTILDNEDSDTKKSYVNGGFSVDKSDTISFTQTSQF
notes: whole, on cells; Used for native EAAC1 of rat brain and for EAAC1 expressed in HEK293, COS-7 and C6 glioma cells
Take B5: the binding result in assay [1] and in assay [2] was “no binding” throughout.
